This data set concerns Escherichia coli TOP10. Nature of the data set: shrunken log2 fold change of peptide-encoding DNA abundance (4.5 h post-induction vs induction); higher = less antimicrobial activity (less host growth inhibition). The following applies: time post-induction: 4.5 h; library: site-saturation at positions 5, 18, 19, 20.
Consider RRIRMRPPRLPRPRPRPSNWPRP, for which the “shrunken log2 fold change” value came out at 0.225. The same measure for RRIRLRPPRLPRPRPRPTIVPRP: -0.183; for RRIRIRPPRLPRPRPRPHATPRP: -0.0163. With RRIRIRPPRLPRPRPRPATTPRP the figure was -0.145; with RRIRMRPPRLPRPRPRPTGLPRP, 0.961. Take RRIRPRPPRLPRPRPRPPNPPRP: the “shrunken log2 fold change” value was 0.453. The same measure for RRIRERPPRLPRPRPRPDSCPRP: -0.149; for RRIRVRPPRLPRPRPRPLDLPRP: -0.0307. On to RRIRARPPRLPRPRPRPGAGPRP, for which the “shrunken log2 fold change” value worked out at 0.767. For RRIRPRPPRLPRPRPRPPVIPRP, the “shrunken log2 fold change” value stood at 0.332. With RRIRRRPPRLPRPRPRPGKNPRP the figure was 0.16; with RRIRRRPPRLPRPRPRPPKPPRP, 0.824. With RRIRQRPPRLPRPRPRPGSFPRP the figure was -0.0531. The same measure for RRIRPRPPRLPRPRPRPNSVPRP: -0.174; for RRIRTRPPRLPRPRPRPPFQPRP: 0.0322. For the sequence RRIRQRPPRLPRPRPRPAKEPRP, the “shrunken log2 fold change” value is -0.0803. With RRIRYRPPRLPRPRPRPACRPRP the figure was -0.077. As for RRIRWRPPRLPRPRPRPQKAPRP, the “shrunken log2 fold change” value was 0.123. Regarding RRIRYRPPRLPRPRPRPMMHPRP, the “shrunken log2 fold change” value was -0.626. For RRIRKRPPRLPRPRPRPNCAPRP, the “shrunken log2 fold change” value was 0.873. With RRIRPRPPRLPRPRPRPNSTPRP the figure was -0.23; with RRIRRRPPRLPRPRPRPPYWPRP, 0.625; with RRIRERPPRLPRPRPRPQFEPRP, -0.0369. With RRIRRRPPRLPRPRPRPNKGPRP the figure was 0.128; with RRIRYRPPRLPRPRPRPVLLPRP, -0.109.

For RRIRNRPPRLPRPRPRPKMLPRP, the “shrunken log2 fold change” value is -0.043. With RRIRIRPPRLPRPRPRPGQAPRP the figure was -0.0154; with RRIRKRPPRLPRPRPRPEFSPRP, 0.397; with RRIRVRPPRLPRPRPRPWMGPRP, -0.339. The same measure for RRIRGRPPRLPRPRPRPDYKPRP: -0.0972; for RRIRKRPPRLPRPRPRPYCWPRP: -0.315; for RRIRIRPPRLPRPRPRPCFWPRP: -0.22.

Take RRIRYRPPRLPRPRPRPMKKPRP: the “shrunken log2 fold change” value was determined as 0.0048. With RRIRNRPPRLPRPRPRPFLDPRP the figure was -0.358; with RRIRCRPPRLPRPRPRPERLPRP, 0.0345. With RRIRDRPPRLPRPRPRPNMTPRP, the “shrunken log2 fold change” value came out at 0.0572.

Regarding RRIRQRPPRLPRPRPRPSCWPRP, the “shrunken log2 fold change” value came out at 0.188.

For the sequence RRIRARPPRLPRPRPRPCEDPRP, the “shrunken log2 fold change” value worked out at 0.693. With RRIRTRPPRLPRPRPRPHSSPRP the figure was -0.119.

For RRIRDRPPRLPRPRPRPTTPPRP, the “shrunken log2 fold change” value turned out to be 0.351. RRIRPRPPRLPRPRPRPQYWPRP: the “shrunken log2 fold change” value was -0.0415.

With RRIRARPPRLPRPRPRPLMIPRP, the “shrunken log2 fold change” value is -0.138.

With RRIRRRPPRLPRPRPRPMNAPRP, the “shrunken log2 fold change” value turned out to be 0.15.

Regarding RRIRERPPRLPRPRPRPWYLPRP, the “shrunken log2 fold change” value was 0.0355. RRIRMRPPRLPRPRPRPCPWPRP: the “shrunken log2 fold change” value was determined as 0.0763.

On to RRIRERPPRLPRPRPRPGLWPRP, for which the “shrunken log2 fold change” value came to 0.168. With RRIRTRPPRLPRPRPRPTEYPRP, the “shrunken log2 fold change” value was -0.245. The same measure for RRIRVRPPRLPRPRPRPDKNPRP: -0.12.

RRIRIRPPRLPRPRPRPGAIPRP: the “shrunken log2 fold change” value is -0.0678.

Turning to RRIRNRPPRLPRPRPRPQWLPRP, the “shrunken log2 fold change” value is -0.317.

As for RRIRGRPPRLPRPRPRPLDMPRP, the “shrunken log2 fold change” value was 0.441.

Consider RRIRHRPPRLPRPRPRPHPTPRP, for which the “shrunken log2 fold change” value was -0.0838. The same measure for RRIRNRPPRLPRPRPRPQKLPRP: -0.188; for RRIRMRPPRLPRPRPRPGCKPRP: 0.172. In the case of RRIRSRPPRLPRPRPRPWFKPRP, the “shrunken log2 fold change” value was -0.504. With RRIRSRPPRLPRPRPRPCPIPRP, the “shrunken log2 fold change” value was -0.267. With RRIRKRPPRLPRPRPRPLTNPRP the figure was -0.0294. With RRIRPRPPRLPRPRPRPPYRPRP the figure was 0.103; with RRIRCRPPRLPRPRPRPQFVPRP, -0.419; with RRIRKRPPRLPRPRPRPIIKPRP, 0.232. With RRIRCRPPRLPRPRPRPFYDPRP, the “shrunken log2 fold change” value was -0.826.

For RRIRPRPPRLPRPRPRPPRWPRP, the “shrunken log2 fold change” value was 0.495. With RRIRSRPPRLPRPRPRPSHIPRP the figure was -0.849; with RRIRARPPRLPRPRPRPAIDPRP, 0.387. The same measure for RRIRYRPPRLPRPRPRPSWDPRP: -0.429; for RRIRFRPPRLPRPRPRPNRIPRP: -0.619. As to RRIRNRPPRLPRPRPRPWCEPRP, the “shrunken log2 fold change” value stood at 0.034. With RRIRQRPPRLPRPRPRPSASPRP the figure was 0.0788; with RRIRSRPPRLPRPRPRPDFNPRP, -0.411. The same measure for RRIRYRPPRLPRPRPRPLGWPRP: 0.0401; for RRIRLRPPRLPRPRPRPRLRPRP: 0.285; for RRIRSRPPRLPRPRPRPCHSPRP: 0.00316. With RRIRNRPPRLPRPRPRPVIWPRP the figure was -0.112; with RRIRKRPPRLPRPRPRPGSYPRP, -0.00588; with RRIRYRPPRLPRPRPRPSRRPRP, 0.0397.

Take RRIRGRPPRLPRPRPRPTPNPRP: the “shrunken log2 fold change” value came to 0.957.

RRIRDRPPRLPRPRPRPRNLPRP: the “shrunken log2 fold change” value is -0.0438.

With RRIRERPPRLPRPRPRPMTHPRP, the “shrunken log2 fold change” value was -0.0346.

As for RRIRRRPPRLPRPRPRPGECPRP, the “shrunken log2 fold change” value worked out at 0.0146. Regarding RRIRERPPRLPRPRPRPKQMPRP, the “shrunken log2 fold change” value is -0.19. With RRIRARPPRLPRPRPRPRWFPRP the figure was 0.623; with RRIRWRPPRLPRPRPRPDHKPRP, -0.134; with RRIRYRPPRLPRPRPRPFNNPRP, 2.81.

Regarding RRIRSRPPRLPRPRPRPCWWPRP, the “shrunken log2 fold change” value turned out to be 0.159. The same measure for RRIRSRPPRLPRPRPRPWINPRP: -0.205; for RRIRTRPPRLPRPRPRPNRTPRP: -0.002; for RRIRFRPPRLPRPRPRPPPKPRP: 1.58. Turning to RRIRKRPPRLPRPRPRPDPKPRP, the “shrunken log2 fold change” value was found to be 0.549.

With RRIRWRPPRLPRPRPRPVYLPRP, the “shrunken log2 fold change” value is -0.229. Consider RRIRARPPRLPRPRPRPTMDPRP, for which the “shrunken log2 fold change” value is -0.037.

With RRIRMRPPRLPRPRPRPANGPRP, the “shrunken log2 fold change” value came to 0.094. With RRIRLRPPRLPRPRPRPTQYPRP the figure was -0.696. For RRIRLRPPRLPRPRPRPKTPPRP, the “shrunken log2 fold change” value amounted to 0.526. Regarding RRIRCRPPRLPRPRPRPHRLPRP, the “shrunken log2 fold change” value is -0.227.

RRIRARPPRLPRPRPRPSHKPRP: the “shrunken log2 fold change” value is 0.0213.

Regarding RRIRFRPPRLPRPRPRPRTMPRP, the “shrunken log2 fold change” value amounted to 0.0577.

Turning to RRIRKRPPRLPRPRPRPKFLPRP, the “shrunken log2 fold change” value was found to be 0.119. The same measure for RRIRPRPPRLPRPRPRPHDKPRP: -0.271. For the sequence RRIRHRPPRLPRPRPRPMMVPRP, the “shrunken log2 fold change” value was -0.0274. The same measure for RRIRERPPRLPRPRPRPNQQPRP: -0.112. The same measure for RRIRFRPPRLPRPRPRPIYKPRP: -0.836.

With RRIRMRPPRLPRPRPRPVIMPRP, the “shrunken log2 fold change” value is -0.101. With RRIRVRPPRLPRPRPRPWIQPRP the figure was 0.0857. With RRIRIRPPRLPRPRPRPIIQPRP, the “shrunken log2 fold change” value is -0.455. The same measure for RRIRGRPPRLPRPRPRPPKKPRP: 1.03; for RRIRCRPPRLPRPRPRPITRPRP: -0.429.

Turning to RRIRTRPPRLPRPRPRPGAEPRP, the “shrunken log2 fold change” value was 0.25. Turning to RRIRFRPPRLPRPRPRPVDSPRP, the “shrunken log2 fold change” value is 0.0218. The same measure for RRIRRRPPRLPRPRPRPLANPRP: 0.42.

RRIRCRPPRLPRPRPRPFRYPRP: the “shrunken log2 fold change” value was -0.29. With RRIRTRPPRLPRPRPRPKMGPRP the figure was -0.0141. With RRIRPRPPRLPRPRPRPSWPPRP the figure was 0.359; with RRIRCRPPRLPRPRPRPCWIPRP, -0.464. For RRIRYRPPRLPRPRPRPMLIPRP, the “shrunken log2 fold change” value was -0.767. The same measure for RRIRLRPPRLPRPRPRPHDYPRP: -0.398; for RRIRPRPPRLPRPRPRPQVTPRP: -0.0231. The same measure for RRIRERPPRLPRPRPRPQDYPRP: -0.091. The same measure for RRIRKRPPRLPRPRPRPTVRPRP: 0.899.

Regarding RRIRGRPPRLPRPRPRPPDGPRP, the “shrunken log2 fold change” value amounted to 1.99. With RRIRGRPPRLPRPRPRPIMVPRP the figure was -0.0212; with RRIRTRPPRLPRPRPRPNVDPRP, -0.625.

Turning to RRIRGRPPRLPRPRPRPDMVPRP, the “shrunken log2 fold change” value was -0.0595. With RRIRRRPPRLPRPRPRPCGYPRP the figure was 0.0658. In the case of RRIRFRPPRLPRPRPRPWKAPRP, the “shrunken log2 fold change” value stood at 0.0062. Consider RRIRARPPRLPRPRPRPQCNPRP, for which the “shrunken log2 fold change” value is -0.104.

For the origin of these results see the supplement of paper PMC9112550, “Optimization of the antimicrobial peptide Bac7 by deep mutational scanning” (BMC Biology, 2022).
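Further: peptides expressed intracellularly from a pBAD plasmid library in pooled LB shake-flask culture, induced with 0.3% L-arabinose, DNA abundance read by NGS, three biological replicates, DESeq2 with apeglm shrinkage.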
